Here are results for 167 variants from the RNAGym collection of RNA variant scans (doi:10.7554/elife.80360).

B1: CPEB3 Ribozyme (parent)
chain: GGGGGCCACAGCAGAAGCGUUCACGUCGCGGCCCCUGUCAGAUUCUGGUGAAUCUGCGAAUUCUGCUGU

The data set covers variants of B1. Put plainly: self-cleavage, relative activity (ratio to wild type); higher = more cleavage; co-transcriptional.
On to U53A C54U, for which the self-cleavage stood at 0.882.

Take U53A C54A: the self-cleavage was found to be 0.907.

Regarding A52U U69A, the self-cleavage is 1.03.

Take C54A G65C: the self-cleavage was found to be 0.514.

With U49A U55C, the self-cleavage is 0.895.

On to U49A U55G, for which the self-cleavage worked out at 0.907.

Consider G50A A59C, for which the self-cleavage came out at 0.806.

For the variant U49G C54G, the self-cleavage came out at 0.925.

Regarding U49G C54A, the self-cleavage was determined as 0.907.

With A52C G56A, the self-cleavage amounted to 0.826.

In the case of A52G C54G, the self-cleavage was 0.861.

With A52G G68U, the self-cleavage is 0.988.

A51U C54A: the self-cleavage was determined as 0.633.

As to G50A G58C, the self-cleavage stood at 1.

For U49G A59U, the self-cleavage is 0.835.

Take U49G A59G: the self-cleavage was 0.96.

Take A52C U62G: the self-cleavage is 0.806.

Take G48U U61G: the self-cleavage came out at 0.958.

On to A52G G58C, for which the self-cleavage came out at 0.972.

Regarding U53C C66U, the self-cleavage worked out at 0.801.

For the variant U53C C66A, the self-cleavage came out at 0.386.

Take G50A U53A: the self-cleavage is 0.903.

For G50U U55G, the self-cleavage came to 0.8.

For G50U U55A, the self-cleavage is 0.882.

With U49A G68U, the self-cleavage came out at 0.982.

On to C54G U62C, for which the self-cleavage was found to be 0.483.

As to C54G U62G, the self-cleavage came to 0.609.

A51U C63A: the self-cleavage was found to be 0.797.

Turning to G48U C66G, the self-cleavage was determined as 0.937.

Consider G50A G65C, for which the self-cleavage was found to be 0.683.

For C54U U61C, the self-cleavage turned out to be 0.861.

Consider A51C C63G, for which the self-cleavage is 0.699.

As for U53G U64A, the self-cleavage was 0.604.

As for G50U U64G, the self-cleavage was determined as 0.864.

Consider G50U U64C, for which the self-cleavage turned out to be 0.947.

Consider U49A G65U, for which the self-cleavage was determined as 0.821.

A51C U55G: the self-cleavage worked out at 0.576.

As for A51C U55C, the self-cleavage turned out to be 0.678.

On to C54G U61G, for which the self-cleavage was found to be 0.436.

As for C54G U61A, the self-cleavage came to 0.569.

Consider U53G C54A, for which the self-cleavage came out at 0.873.

Turning to U53C G56U, the self-cleavage came to 0.399.

For A51U G56A, the self-cleavage is 0.889.

On to A51U G56C, for which the self-cleavage stood at 0.486.

For the variant A51U G56U, the self-cleavage is 0.879.

Turning to A52G G65U, the self-cleavage was 0.894.

A52G G65C: the self-cleavage came to 0.843.

As to U53G G58A, the self-cleavage came to 0.818.

As for U49C G58C, the self-cleavage was 0.993.

Regarding C54U U55G, the self-cleavage was 0.806.

Consider U49C C54A, for which the self-cleavage stood at 0.782.

U49A C66U: the self-cleavage was found to be 0.998.

For A52C U67C, the self-cleavage was 1.

Turning to A52C U67G, the self-cleavage turned out to be 1.

With A51G A59C, the self-cleavage stood at 0.747.

Take A51G A59G: the self-cleavage is 0.963.

As for U49G A60C, the self-cleavage was 0.338.

With U53C G58U, the self-cleavage was 0.965.

With C54A A59G, the self-cleavage turned out to be 0.858.

With C54A A59U, the self-cleavage was determined as 0.497.

As to C54A A59C, the self-cleavage came to 0.365.

For U53G U67A, the self-cleavage turned out to be 0.779.

Regarding U53G U67G, the self-cleavage is 0.894.

For U53G U67C, the self-cleavage came to 0.901.

With G50U A60G, the self-cleavage was determined as 0.973.

On to G50U A60C, for which the self-cleavage was 0.382.

For U49G A51U, the self-cleavage was determined as 0.95.

Consider U49G A51G, for which the self-cleavage was 0.981.

For C54G G58A, the self-cleavage turned out to be 0.849.

Regarding C54G G65C, the self-cleavage is 0.503.

A52C G68A: the self-cleavage was determined as 0.987.

Turning to A52C G68C, the self-cleavage is 0.978.

Consider G50C U53A, for which the self-cleavage was 0.899.

Take A52C U69A: the self-cleavage was determined as 0.977.

As to G50U G56C, the self-cleavage was 0.649.

For the variant G48U C54A, the self-cleavage is 0.994.

Consider G48U C54U, for which the self-cleavage was 1.02.

On to C54U G65U, for which the self-cleavage came to 0.809.

U49G G50C: the self-cleavage was found to be 0.975.

U49G G50U: the self-cleavage came out at 0.993.

Take U53C U62C: the self-cleavage is 0.513.

Regarding A51U C57A, the self-cleavage is 0.374.

As for U49G U64G, the self-cleavage came out at 0.926.

For the variant U49G U64C, the self-cleavage was 0.932.

Take G50C U67A: the self-cleavage was determined as 0.955.

Turning to U53A U61G, the self-cleavage was determined as 0.581.

For A51G A52G, the self-cleavage came to 0.925.

Consider C54A U69G, for which the self-cleavage was found to be 1.01.

In the case of G48U U55A, the self-cleavage was found to be 1.

On to A52G C66G, for which the self-cleavage is 0.966.

Turning to G48U U62G, the self-cleavage came out at 0.927.

For the variant G48U U62A, the self-cleavage was 0.922.

C54G U55G: the self-cleavage was determined as 0.407.

For C54G U55A, the self-cleavage worked out at 0.745.

With U49A U69A, the self-cleavage is 0.976.

On to U49A U69C, for which the self-cleavage was found to be 1.06.

On to G50U U67G, for which the self-cleavage is 1.05.

As for G50U U67A, the self-cleavage was found to be 1.04.

As for C54G A59U, the self-cleavage worked out at 0.47.

As for U53A C66A, the self-cleavage amounted to 0.509.

For the variant G50A C63U, the self-cleavage turned out to be 0.986.

As to U49C U55G, the self-cleavage came to 0.816.

For the variant U49C G56A, the self-cleavage is 0.935.

Regarding U49C G56U, the self-cleavage stood at 0.948.

In the case of A52C U53G, the self-cleavage is 0.788.

For A51G C66U, the self-cleavage turned out to be 0.972.

Regarding A51G C66A, the self-cleavage turned out to be 0.875.

In the case of A51G C66G, the self-cleavage was 0.84.

Turning to U49C, the self-cleavage is 0.988.

As for U49A, the self-cleavage worked out at 1.

U49G: the self-cleavage stood at 0.996.

Take U49C U64G: the self-cleavage is 0.909.

On to U49C U64A, for which the self-cleavage was 0.89.

As for A52U U55A, the self-cleavage came out at 0.7.

For A52U U55G, the self-cleavage came out at 0.56.

For G50C G58A, the self-cleavage stood at 0.935.

On to C54A A60C, for which the self-cleavage was 0.272.

For the variant A52G A60U, the self-cleavage stood at 0.506.

With C54G G68U, the self-cleavage is 0.993.

For the variant G50A C57A, the self-cleavage came out at 0.448.

Take G50A C57U: the self-cleavage amounted to 0.356.

For the variant A52G U55C, the self-cleavage was found to be 0.722.

As for A51U A59G, the self-cleavage was found to be 0.993.

Consider G48U U53A, for which the self-cleavage stood at 1.

Consider U49A G50U, for which the self-cleavage worked out at 0.986.

Regarding A51G A60C, the self-cleavage came to 0.373.

For the variant U49A U67C, the self-cleavage was 0.99.

Consider U49A U67G, for which the self-cleavage turned out to be 1.03.

Regarding U49G U53C, the self-cleavage came to 0.98.

For U49G U53A, the self-cleavage is 0.918.

U49G U53G: the self-cleavage was 0.585.

As to A52C A59U, the self-cleavage was 0.68.

On to A51C U62G, for which the self-cleavage was determined as 0.778.

As to U49A U61C, the self-cleavage came to 0.91.

Regarding A51G U55A, the self-cleavage worked out at 0.87.

Consider U49A C63U, for which the self-cleavage is 0.94.

Take C54A U67G: the self-cleavage turned out to be 0.887.

As to C54A U67C, the self-cleavage was 0.887.

Regarding A51C U53G, the self-cleavage came to 0.703.

Regarding A52C A60C, the self-cleavage turned out to be 0.398.

With A52C A60G, the self-cleavage was determined as 0.839.

As for A52U C63U, the self-cleavage was 0.954.

For the variant A51G G58A, the self-cleavage stood at 0.949.

Regarding U53C C54U, the self-cleavage amounted to 0.819.

On to C54U U64A, for which the self-cleavage came out at 0.905.

With C54U U64G, the self-cleavage worked out at 0.924.

Take C54U U64C: the self-cleavage turned out to be 0.92.

On to U49A A52C, for which the self-cleavage is 1.

Turning to U49A A52U, the self-cleavage was found to be 1.02.

Take U53G U55G: the self-cleavage is 0.386.

Consider U49G G58U, for which the self-cleavage came to 0.957.

Take U49G G58C: the self-cleavage was 1.

Consider G48U G65A, for which the self-cleavage stood at 0.961.

Consider A52U U67A, for which the self-cleavage came out at 0.978.

Regarding U53G A59U, the self-cleavage came out at 0.576.

As for C54U C63U, the self-cleavage came out at 1.02.

For U49C G50A, the self-cleavage was 0.981.

Take A51U G65C: the self-cleavage was determined as 0.674.

As for U49A U62G, the self-cleavage was found to be 0.919.

For the variant G50A U55G, the self-cleavage amounted to 0.858.

Regarding G50A U55C, the self-cleavage was 0.79.

For A52U U62C, the self-cleavage amounted to 0.765.

Regarding U49G U55A, the self-cleavage is 0.968.

As for C54U A60G, the self-cleavage was 0.903.

For U49A G56C, the self-cleavage stood at 0.765.

Take G50C G56C: the self-cleavage was found to be 0.456.

As for G50U A51C, the self-cleavage came out at 0.938.
